Laboratory results: PMC13223232, “Structural basis for TRF2-RAP1 recruitment by EBNA1 at the EBV origin of replication” (Scientific Reports, 2025)

B1: GST-TRFH domain (amino acids 85–287) (domain or fragment, human, UniProt Q15554 85-287, looked up)
chain: AGEARLEEAVNRWVLKFYFHEALRAFRGSRYGDFRQIRDIMQALLVRPLGKEHTVSRLLRVMQCLSRIEEGENLDCSFDMEAELTPLESAINVLEMIKTEFTLTEAVVESSRKLVKEAAVIICIKNKEFEKASKILKKHMSKDPTTQKLRNDLLNIIREKNLAHPVIQNFSYETFQQKMLRFLESHLDDAEPYLLTMAKKALK
notes: also called TRF2 homodimerization domain; TRF2 dimerization domain; source: E. coli, purified to near homogeneity; not shown: GST, N-terminal, kept
B2: EBNA1 459–607 (domain or fragment)
chain: RKKGGWFGKHRGQGGSNPKFENIAEGLRALLARSHVERTTDEGTWVAGVFVYGGSKTSLYNLRRGTALAIPQCRLTPLSRLPFGMAPGPGPQPGPLRESIVCYFMVFLQTHIFAEVLKDAIKDLVMTKPAPTCNIRVTVCSFDDGVDLP
notes: also called shorter EBNA1 459–607; core structured DBD; source: E. coli
B3: EBNA1 DNA binding domain (DBD) aa 401–607 (domain or fragment)
chain: GRRPFFHPVGEADYFEYHQEGGPDGEPDVPPGAIEQGPADDPGEGPSTGPRGQGDGGRRKKGGWFGKHRGQGGSNPKFENIAEGLRALLARSHVERTTDEGTWVAGVFVYGGSKTSLYNLRRGTALAIPQCRLTPLSRLPFGMAPGPGPQPGPLRESIVCYFMVFLQTHIFAEVLKDAIKDLVMTKPAPTCNIRVTVCSFDDGVDLP
notes: also called EBNA1 DBD; EBNA1 401–607; source: E. coli, purified (Ni-NTA, SEC); not shown: His6-SUMO, N-terminal, cleaved
B4: full length TRF2/Rap1 complex (complex)
chain 1: MAAGAGTAGPASGPGVVRDPAASQPRKRPGREGGEGARRSDTMAGGGGSSDGSGRAAGRRASRSSGRARRGRHEPGLGGPAERGAGEARLEEAVNRWVLKFYFHEALRAFRGSRYGDFRQIRDIMQALLVRPLGKEHTVSRLLRVMQCLSRIEEGENLDCSFDMEAELTPLESAINVLEMIKTEFTLTEAVVESSRKLVKEAAVIICIKNKEFEKASKILKKHMSKDPTTQKLRNDLLNIIREKNLAHPVIQNFSYETFQQKMLRFLESHLDDAEPYLLTMAKKALKSESAASSTGKEDKQPAPGPVEKPPREPARQLRNPPTTIGMMTLKAAFKTLSGAQDSEAAFAKLDQKDLVLPTQALPASPALKNKRPRKDENESSAPADGEGGSELQPKNKRMTISRLVLEEDSQSTEPSAGLNSSQEAASAPPSKPTVLNQPLPGEKNPKVPKGKWNSSNGVEEKETWVEEDELFQVQAAPDEDSTTNITKKQKWTVEESEWVKAGVQKYGEGNWAAISKNYPFVNRTAVMIKDRWRTMKRLGMN
chain 2: MAEAMDLGKDPNGPTHSSTLFVRDDGSSMSFYVRPSPAKRRLSTLILHGGGTVCRVQEPGAVLLAQPGEALAEASGDFISTQYILDCVERNERLELEAYRLGPASAADTGSEAKPGALAEGAAEPEPQRHAGRIAFTDADDVAILTYVKENARSPSSVTGNALWKAMEKSSLTQHSWQSLKDRYLKHLRGQEHKYLLGDAPVSPSSQKLKRKAEEDPEAADSGEPQNKRTPDLPEEEYVKEEIQENEEAVKKMLVEATREFEEVVVDESPPDFEIHITMCDDDPPTPEEDSETQPDEEEEEEEEKVSQPEVGAAIKIIRQLMEKFNLDLSTVTQAFLKNSGELEATSAFLASGQRADGYPIWSRQDDIDLQKDDEDTREALVKKFGAQNVARRIEFRKK
notes: also called pre-assembled TRF2-Rap1 complex; source: E. coli, each purified (Ni-NTA, SEC); pre-assembled complex purified by glycerol gradient; not shown: His6-SUMO, N-terminal, cleaved

Legend:
[1] = biological target: B3; test: native gel or EMSA; supershift of the ½ DS-EBNA1 complex by TRFH (no Myb domain); binding buffer lowered to 100 mM KCl, highest TRFH 10 µM (1000-fold stoichiometric excess); only a weak supershift under standard conditions (300 mM KCl); conditions: both partners purified
[2] = biological target: B1; test: as above; conditions: both partners purified
[3] = biological target: B4; test: native gel or EMSA; IRD700-labelled 60 bp ½ DS DNA probe (5 nM); Rap1, TRF2 or TRF2 + Rap1 titrated up to 480 nM without EBNA1, with EBNA1 401–607 or with EBNA1 Δ90–325; 10 mM HEPES pH 7.5, 300 mM KCl, 5 mM MgCl2, 1 mM ZnCl2, 5 mM BME, 0.05% NP-40, 5% glycerol; 1.4% agarose gel; all proteins meet on the DNA; conditions: both partners purified
[4] = biological target: the molecule itself; test: cryo-EM structure; ½ DS + EBNA1 DBD + TRF2 + Rap1 (1 : 4 : 2.5 : 2.5), GraFix (10-30% glycerol, 0.125% glutaraldehyde); estimated 7.1 Å reconstruction
full-length TRF2 = biological target: T1, full-length TRF2 (human, UniProt Q15554 1-542); test: cross-linking; zero-length EDC/Sulfo-NHS cross-linking with LC-MS/MS; complex mixed 1 ½ DS DNA : 4 EBNA1 401–607 : 2.5 TRF2 : 2.5 Rap1, glycerol-gradient purified, 1 mg/mL in 20 mM MES pH 6.8, 100 mM NaCl, 1 mM MgCl2, 10 µM ZnCl2, 0.5 mM TCEP; 10 mM crosslinker, room temperature, 2 h; conditions: both partners purified
T1 construct: also called TERF2; source: E. coli, purified (Ni-NTA, SEC); not shown: His6-SUMO, N-terminal, cleaved
T1 sequence (looked up): B4 chain 1

full-length Rap1 = biological target: T2, full-length Rap1 (human, UniProt Q9NYB0 1-399); test: as above; conditions: both partners purified
T2 construct: also called TERF2IP; source: E. coli, purified (Ni-NTA, SEC); not shown: His6-SUMO, N-terminal, cleaved
T2 sequence (looked up): B4 chain 2

[5] = biological target: T3, EBNA1 Δ90–325 3x (E495A D499A E500A) (Epstein-Barr virus, UniProt P03211 1-641, Δ90–325 | E495A | D499A | E500A); test: native gel or EMSA; pre-assembled TRF2-Rap1 complex (glycerol-gradient purified) serially diluted and added to pre-assembled ½ DS-EBNA1 complex (20 nM EBNA1 Δ90–325 WT, 3x or 8x, 5 nM ½ DS DNA); binding buffer with 300 mM KCl, pH 7.5; conditions: both partners purified
T3 construct: also called 3x mutant EBNA1; source: E. coli, purified (Ni-NTA, SEC); not shown: His6-SUMO, N-terminal, cleaved
T3 sequence: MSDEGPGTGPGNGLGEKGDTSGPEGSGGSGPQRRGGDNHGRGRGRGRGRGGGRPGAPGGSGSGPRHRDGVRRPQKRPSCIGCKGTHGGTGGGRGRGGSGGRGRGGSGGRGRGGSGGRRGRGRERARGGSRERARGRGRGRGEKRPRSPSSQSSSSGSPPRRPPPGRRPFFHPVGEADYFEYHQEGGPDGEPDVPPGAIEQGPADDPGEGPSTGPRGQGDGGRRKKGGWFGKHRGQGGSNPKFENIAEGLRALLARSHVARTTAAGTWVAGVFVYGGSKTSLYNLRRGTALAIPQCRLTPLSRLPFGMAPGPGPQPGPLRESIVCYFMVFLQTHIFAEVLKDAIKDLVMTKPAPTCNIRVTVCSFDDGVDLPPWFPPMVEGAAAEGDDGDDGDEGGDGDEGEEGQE

B1
binding result [1]: binds

B2
binding result [2]: binds

B3
binding result [3]: binds
binding result [4]: binds
binding result (full-length TRF2): binds
binding result (full-length Rap1): binds

B4
fold weaker binding than with WT EBNA1 [5]: ~2 fold
